Measurements as given in patent US20240115745A1 (3B PHARMACEUTICALS, published 2024).
Blank lines part the entries; values can stand above or below the binder they belong to. *1 amine or outer side, *2 acyl side, *3 side chain or, on linkers, in order; H or OH if unused. Bridges are numbered along the chain shown (N, C = ends). Primed or numbered codes have the meaning given here. [ ]: non-standard residue; d: D form. The star is where a group is joined. mli = maleimide cyclization element: 3,4-maleimide inserted symmetrically, forming a vinyl thioether with each Cys sulfur; Ttds = 1,13-diamino-4,7,10-trioxatridecan-succinamic acid, NCCCOCCOCCOCCCNC(=O)CCC(=O)*; mli(DOTA-Ttd) = 3,4-N-(DOTA-Ttd)-maleimide bridging two Cys S atoms as vinyl thioethers; N4Ac = 6-carboxy-1,4,8,11-tetraazaundecane, NCCNCC(CNCCN)C(=O)*; Buur = n-butylaminocarbonyl blocking group, CCCCNC(=O)*; DOTA = O=C(O)CN1CCN(CC(=O)O)CCN(CC(=O)*)CCN(CC(=O)O)CC1; NODAGA = O=C(O)CN1CCN(CC(=O)O)CCN(C(CCC(=O)*)C(=O)O)CC1; Maleimide(3,4-diyl) = O=C1NC(=O)C([*:2])=C1[*:1]; Buur″ = n-butylaminocarbonyl, CCCCNC(=O)*; β3hK = NCCCC[C@H](N)CC(=O)O; Nle = CCCC[C@H](N)C(=O)O; Hexanoyl = CCCCCC(=O)*

Columns and labels:
[1] = target: T1, fibroblast activation protein (FAP) on FAP-expressing human WI-38 fibroblasts (human, UniProt Q12884 1-760); assay: competitive FACS on WI-38 cells vs 3 nM Cy5-labeled probe; A = pIC50 >7.0
T1 construct: Endogenous FAP on WI-38 cells (ECACC) in the FACS assay; also called human FAP
Method: FAP-expressing human WI-38 fibroblasts (ECACC) were cultured in EMEM including 15% fetal bovine serum, 2 mM L-Glutamine and 1% Non-essential amino acids. Cells were detached with Accutase (Biolegend, #BLD-423201) and washed in FACS buffer (PBS including 1% FBS). Cells were diluted in FACS buffer to a final concentration of 100.000 cells per ml and 200 μl of the cell suspension are transferred to a u-shaped non-binding 96-well plate (Greiner). […] Cell were washed twice with FACS buffer and resuspended in 200 μl FACS buffer. Cells were analyzed in an Attune NxT flow cytometer. Median fluorescence intensities (Cy5 channel) was calculated by Attune NxT software and plotted against peptide concentrations. Four parameter logistic (4PL) curve fitting and pIC50 calculations were performed using ActivityBase software.

[2] = target: Recombinant human FAP (R&D systems, #3715-SE) (human, UniProt Q12884 26-760); assay: cell-based or functional assay

B1: compound Hex-[Cys-Pro-Pro-Thr-Gln-Phe-Cys]-Asp-Lys(DOTA)-NH2 (1016) (peptide)
peptide: Hexanoyl-CPPTQFCDK(DOTA)-NH2
modifications: disulfide 1-7
SMILES: CCCCCC(=O)N[C@H]1CSSC[C@@H](C(=O)N[C@@H](CC(=O)O)C(=O)N[C@@H](CCCCNC(=O)CN2CCN(CC(=O)O)CCN(CC(=O)O)CCN(CC(=O)O)CC2)C(N)=O)NC(=O)[C@H](Cc2ccccc2)NC(=O)[C@H](CCC(N)=O)NC(=O)[C@H]([C@@H](C)O)NC(=O)[C@@H]2CCCN2C(=O)[C@@H]2CCCN2C1=O
pIC50 Category (FACS) [1]: > 7 pIC50
pIC50 Category (Activity), FRET-based FAP protease activity assay [2]: > 7 pIC50

B3: compound Hex-[Cys-Pro-Pro-Thr-Glu-Phe-Cys]-Asp-Lys(DOTA)-NH2 (1013) (peptide)
peptide: Hexanoyl-CPPTEFCDK(DOTA)-NH2
modifications: disulfide 1-7
SMILES: CCCCCC(=O)N[C@H]1CSSC[C@@H](C(=O)N[C@@H](CC(=O)O)C(=O)N[C@@H](CCCCNC(=O)CN2CCN(CC(=O)O)CCN(CC(=O)O)CCN(CC(=O)O)CC2)C(N)=O)NC(=O)[C@H](Cc2ccccc2)NC(=O)[C@H](CCC(=O)O)NC(=O)[C@H]([C@@H](C)O)NC(=O)[C@@H]2CCCN2C(=O)[C@@H]2CCCN2C1=O
pIC50 Category (FACS) [1]: > 7 pIC50
pIC50 Category (Activity), FRET-based FAP protease activity assay [2]: > 7 pIC50

B4: compound Buur-[Cys-Pro-Pro-Thr-Glu-Phe-Cys]-Asp-Lys(DOTA)-NH2 (1015) (peptide)
peptide: Buur-CPPTEFCDK(DOTA)-NH2
modifications: disulfide 1-7
SMILES: CCCCNC(=O)N[C@H]1CSSC[C@@H](C(=O)N[C@@H](CC(=O)O)C(=O)N[C@@H](CCCCNC(=O)CN2CCN(CC(=O)O)CCN(CC(=O)O)CCN(CC(=O)O)CC2)C(N)=O)NC(=O)[C@H](Cc2ccccc2)NC(=O)[C@H](CCC(=O)O)NC(=O)[C@H]([C@@H](C)O)NC(=O)[C@@H]2CCCN2C(=O)[C@@H]2CCCN2C1=O
pIC50 Category (FACS) [1]: > 7 pIC50
pIC50 Category (Activity), FRET-based FAP protease activity assay [2]: > 7 pIC50

B7: compound Hex-[Cys(mli)-Pro-Pro-Thr-Glu-Phe-Cys]-Bhk(DOTA)-OH (2011) (peptide)
peptide: Hexanoyl-CPPTEFC[β3hK](DOTA)-OH
modifications: linker 1-7 via Maleimide(3,4-diyl)
SMILES: CCCCCC(=O)N[C@H]1CSC2=C(SC[C@@H](C(=O)N[C@@H](CCCCNC(=O)CN3CCN(CC(=O)O)CCN(CC(=O)O)CCN(CC(=O)O)CC3)CC(=O)O)NC(=O)[C@H](Cc3ccccc3)NC(=O)[C@H](CCC(=O)O)NC(=O)[C@H]([C@@H](C)O)NC(=O)[C@@H]3CCCN3C(=O)[C@@H]3CCCN3C1=O)C(=O)NC2=O
pIC50 Category (FACS) [1]: > 7 pIC50
pIC50 Category (Activity), FRET-based FAP protease activity assay [2]: > 7 pIC50

Binder: {DOTA-Ttds}-[Nle]CPPTEFCD-NH2 (linker 2-8 via mli) [compound DOTA-Ttds-Nle-[Cys(mli)-Pro-Pro-Thr-Glu-Phe-Cys]-Asp-NH2 (2007)]
pIC50 Category (Activity), FRET-based FAP protease activity assay [2]: > 7 pIC50

Binder: Hexanoyl-CPPTEFCD-NH2 (linker 1-7 via mli(DOTA-Ttd)) [compound Hex-[Cys(mli(DOTA-Ttd))-Pro-Pro-Thr-Glu-Phe-Cys]-Asp-NH2 (2020)]
pIC50 Category (Activity), FRET-based FAP protease activity assay [2]: > 7 pIC50

B10: compound H-Met-[Cys-Pro-Pro-Thr-Glu-Phe-Cys]-Asp-His-Phe-Arg-Asp-NH2 (1001) (peptide)
peptide: MCPPTEFCDHFRD
HELM: PEPTIDE1{M.C.P.P.T.E.F.C.D.H.F.R.D.[am]}$PEPTIDE1,PEPTIDE1,2:R3-8:R3$$$V2.0
SMILES: CSCC[C@H](N)C(=O)N[C@H]1CSSC[C@@H](C(=O)N[C@@H](CC(=O)O)C(=O)N[C@@H](Cc2c[nH]cn2)C(=O)N[C@@H](Cc2ccccc2)C(=O)N[C@@H](CCCNC(=N)N)C(=O)N[C@@H](CC(=O)O)C(N)=O)NC(=O)[C@H](Cc2ccccc2)NC(=O)[C@H](CCC(=O)O)NC(=O)[C@H]([C@@H](C)O)NC(=O)[C@@H]2CCCN2C(=O)[C@@H]2CCCN2C1=O
pIC50 Category (FACS) [1]: > 7 pIC50
pIC50 Category (Activity), FRET-based FAP protease activity assay [2]: > 7 pIC50

Binder: Hexanoyl-CPPTEFCDHFRD-NH2 (disulfide 1-7) [compound Hex-[Cys-Pro-Pro-Thr-Glu-Phe-Cys]-Asp-His-Phe-Arg-Asp-NH2 (1002)]
pIC50 Category (FACS) [1]: > 7 pIC50
pIC50 Category (Activity), FRET-based FAP protease activity assay [2]: > 7 pIC50

Other lines, results leading:

pIC50 Category (FACS) [1]: > 7 pIC50
pIC50 Category (Activity), FRET-based FAP protease activity assay [2]: > 7 pIC50
B2: compound Hex-[Cys-Pro-Pro-Thr-Glu-Phe-Cys]-Asp-Lys(N4Ac)-NH2 (1021) (peptide)
peptide: Hexanoyl-CPPTEFCDK(N4Ac)-NH2
modifications: disulfide 1-7
SMILES: CCCCCC(=O)N[C@H]1CSSC[C@@H](C(=O)N[C@@H](CC(=O)O)C(=O)N[C@@H](CCCCNC(=O)C(CNCCN)CNCCN)C(N)=O)NC(=O)[C@H](Cc2ccccc2)NC(=O)[C@H](CCC(=O)O)NC(=O)[C@H]([C@@H](C)O)NC(=O)[C@@H]2CCCN2C(=O)[C@@H]2CCCN2C1=O

pIC50 Category (FACS) [1]: > 7 pIC50
pIC50 Category (Activity), FRET-based FAP protease activity assay [2]: > 7 pIC50
B5: compound Hex-[Cys-Pro-Pro-Thr-Glu-Phe-Cys]-Asp-Lys(NODAGA)-NH2 (1020) (peptide)
peptide: Hexanoyl-CPPTEFCDK(NODAGA)-NH2
modifications: disulfide 1-7
SMILES: CCCCCC(=O)N[C@H]1CSSC[C@@H](C(=O)N[C@@H](CC(=O)O)C(=O)N[C@@H](CCCCNC(=O)CCC(C(=O)O)N2CCN(CC(=O)O)CCN(CC(=O)O)CC2)C(N)=O)NC(=O)[C@H](Cc2ccccc2)NC(=O)[C@H](CCC(=O)O)NC(=O)[C@H]([C@@H](C)O)NC(=O)[C@@H]2CCCN2C(=O)[C@@H]2CCCN2C1=O

pIC50 Category (FACS) [1]: > 7 pIC50
pIC50 Category (Activity), FRET-based FAP protease activity assay [2]: > 7 pIC50
B6: compound Buur-[Cys-Pro-Pro-Thr-Glu-Phe-Cys]-Bhk(DOTA)-OH (1014) (peptide)
peptide: {Buur″}-CPPTEFC[β3hK](DOTA)-OH
modifications: disulfide 1-7
SMILES: CCCCNC(=O)N[C@H]1CSSC[C@@H](C(=O)N[C@@H](CCCCNC(=O)CN2CCN(CC(=O)O)CCN(CC(=O)O)CCN(CC(=O)O)CC2)CC(=O)O)NC(=O)[C@H](Cc2ccccc2)NC(=O)[C@H](CCC(=O)O)NC(=O)[C@H]([C@@H](C)O)NC(=O)[C@@H]2CCCN2C(=O)[C@@H]2CCCN2C1=O

pIC50 Category (FACS) [1]: > 7 pIC50
pIC50 Category (Activity), FRET-based FAP protease activity assay [2]: > 7 pIC50
B8: compound Hex-[Cys-Pro-Pro-Thr-Glu-Phe-Cys]-Bhk(DOTA)-OH (1012) (peptide)
peptide: Hexanoyl-CPPTEFC[β3hK](DOTA)-OH
modifications: disulfide 1-7
SMILES: CCCCCC(=O)N[C@H]1CSSC[C@@H](C(=O)N[C@@H](CCCCNC(=O)CN2CCN(CC(=O)O)CCN(CC(=O)O)CCN(CC(=O)O)CC2)CC(=O)O)NC(=O)[C@H](Cc2ccccc2)NC(=O)[C@H](CCC(=O)O)NC(=O)[C@H]([C@@H](C)O)NC(=O)[C@@H]2CCCN2C(=O)[C@@H]2CCCN2C1=O

pIC50 Category (Activity), FRET-based FAP protease activity assay [2]: > 7 pIC50
B9: compound DOTA-Nle-[Cys-Pro-Pro-Thr-Glu-Phe-Cys]-Asp-NH2 (1004) (peptide)
peptide: CPPTEFCD
HELM: PEPTIDE1{[O=C(O)CN1CCN(CC(=O)O)CCN(CC(=O)[*:2])CCN(CC(=O)O)CC1].[Nle].C.P.P.T.E.F.C.D.[am]}$PEPTIDE1,PEPTIDE1,3:R3-9:R3$$$V2.0
SMILES: CCCC[C@H](NC(=O)CN1CCN(CC(=O)O)CCN(CC(=O)O)CCN(CC(=O)O)CC1)C(=O)N[C@H]1CSSC[C@@H](C(=O)N[C@@H](CC(=O)O)C(N)=O)NC(=O)[C@H](Cc2ccccc2)NC(=O)[C@H](CCC(=O)O)NC(=O)[C@H]([C@@H](C)O)NC(=O)[C@@H]2CCCN2C(=O)[C@@H]2CCCN2C1=O

pIC50 Category (Activity), FRET-based FAP protease activity assay [2]: > 7 pIC50
Binder: {DOTA-Ttds}-[Nle]CPPTEFCD-NH2 (disulfide 2-8) [compound DOTA-Ttds-Nle-[Cys-Pro-Pro-Thr-Glu-Phe-Cys]-Asp-NH2 (1003)]
